Source: patent US20220289795, “EFFICIENT METHOD FOR PREPARING PPR PROTEIN AND USE OF THE SAME” (EditForce, Inc., published 2022)

Columns and labels:
[1] = tested on: v2_PPR5 (Artificial Sequence); test: ELONA
[2] = tested on: v2_PPR1 (Artificial Sequence); test: ELONA
[3] = tested on: v2_PPR2 (Artificial Sequence); test: ELONA
[4] = tested on: v2_PPR3 (Artificial Sequence); test: ELONA
NL_v2_PPR7 = molecular target: T1, NL_v2_PPR7 (Artificial Sequence); test: ELONA; RPB-ELISA; conditions: tags: N-term luciferase, C-term 6xHis; label: 5'-biotin
T1 chain: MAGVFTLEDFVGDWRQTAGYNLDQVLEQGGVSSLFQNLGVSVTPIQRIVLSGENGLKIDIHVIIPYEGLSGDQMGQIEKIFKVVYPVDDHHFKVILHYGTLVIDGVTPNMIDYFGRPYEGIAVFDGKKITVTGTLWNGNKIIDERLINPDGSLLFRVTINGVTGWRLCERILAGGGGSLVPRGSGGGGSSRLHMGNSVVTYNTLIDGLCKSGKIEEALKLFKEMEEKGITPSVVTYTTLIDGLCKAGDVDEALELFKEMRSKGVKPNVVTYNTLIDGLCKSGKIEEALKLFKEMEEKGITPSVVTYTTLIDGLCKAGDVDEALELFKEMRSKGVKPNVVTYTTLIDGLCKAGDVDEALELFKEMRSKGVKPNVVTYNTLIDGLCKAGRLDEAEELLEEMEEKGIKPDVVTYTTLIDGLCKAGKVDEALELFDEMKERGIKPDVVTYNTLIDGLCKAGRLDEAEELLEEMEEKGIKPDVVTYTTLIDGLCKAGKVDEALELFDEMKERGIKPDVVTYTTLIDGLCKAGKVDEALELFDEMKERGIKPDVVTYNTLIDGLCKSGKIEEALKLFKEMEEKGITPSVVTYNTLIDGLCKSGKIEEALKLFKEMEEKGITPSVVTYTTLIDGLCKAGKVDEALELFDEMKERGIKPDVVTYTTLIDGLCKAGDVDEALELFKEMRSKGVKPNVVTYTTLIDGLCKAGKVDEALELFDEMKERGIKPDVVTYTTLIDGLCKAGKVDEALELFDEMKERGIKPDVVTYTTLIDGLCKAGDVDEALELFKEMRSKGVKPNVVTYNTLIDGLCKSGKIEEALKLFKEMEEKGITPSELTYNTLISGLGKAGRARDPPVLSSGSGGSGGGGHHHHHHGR

v3.1_PPR7 = molecular target: T2, v3.1_PPR7 (Artificial Sequence); test: ELONA; RPB-ELISA; conditions: tags: luciferase fusion; label: 5'-biotin
T2 chain: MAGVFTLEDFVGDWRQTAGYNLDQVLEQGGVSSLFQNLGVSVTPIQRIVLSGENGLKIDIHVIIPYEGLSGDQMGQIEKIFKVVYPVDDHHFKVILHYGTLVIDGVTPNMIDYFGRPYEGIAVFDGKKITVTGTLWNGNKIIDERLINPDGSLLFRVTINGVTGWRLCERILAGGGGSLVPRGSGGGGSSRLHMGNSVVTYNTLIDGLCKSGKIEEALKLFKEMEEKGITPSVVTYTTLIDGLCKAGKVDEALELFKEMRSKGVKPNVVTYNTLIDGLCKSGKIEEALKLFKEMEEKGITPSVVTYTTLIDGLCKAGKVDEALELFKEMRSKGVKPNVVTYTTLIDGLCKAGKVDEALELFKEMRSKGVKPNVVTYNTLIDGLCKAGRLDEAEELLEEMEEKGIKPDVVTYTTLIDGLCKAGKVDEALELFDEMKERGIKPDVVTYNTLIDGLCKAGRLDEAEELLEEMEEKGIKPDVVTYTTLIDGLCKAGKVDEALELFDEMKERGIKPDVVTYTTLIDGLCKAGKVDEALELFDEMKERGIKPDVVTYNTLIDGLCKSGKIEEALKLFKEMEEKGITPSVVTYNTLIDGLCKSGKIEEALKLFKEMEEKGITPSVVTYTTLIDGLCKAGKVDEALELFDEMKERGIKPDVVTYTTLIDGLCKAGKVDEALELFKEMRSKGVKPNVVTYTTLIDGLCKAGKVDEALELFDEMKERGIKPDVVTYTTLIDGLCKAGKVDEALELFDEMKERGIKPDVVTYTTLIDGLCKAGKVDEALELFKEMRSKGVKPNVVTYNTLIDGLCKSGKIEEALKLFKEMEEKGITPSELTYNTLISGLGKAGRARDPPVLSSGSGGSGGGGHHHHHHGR

v3.1_PPR6 = molecular target: T3, v3.1_PPR6 (Artificial Sequence); test: ELONA; RPB-ELISA; conditions: tags: luciferase fusion; label: 5'-biotin
T3 chain: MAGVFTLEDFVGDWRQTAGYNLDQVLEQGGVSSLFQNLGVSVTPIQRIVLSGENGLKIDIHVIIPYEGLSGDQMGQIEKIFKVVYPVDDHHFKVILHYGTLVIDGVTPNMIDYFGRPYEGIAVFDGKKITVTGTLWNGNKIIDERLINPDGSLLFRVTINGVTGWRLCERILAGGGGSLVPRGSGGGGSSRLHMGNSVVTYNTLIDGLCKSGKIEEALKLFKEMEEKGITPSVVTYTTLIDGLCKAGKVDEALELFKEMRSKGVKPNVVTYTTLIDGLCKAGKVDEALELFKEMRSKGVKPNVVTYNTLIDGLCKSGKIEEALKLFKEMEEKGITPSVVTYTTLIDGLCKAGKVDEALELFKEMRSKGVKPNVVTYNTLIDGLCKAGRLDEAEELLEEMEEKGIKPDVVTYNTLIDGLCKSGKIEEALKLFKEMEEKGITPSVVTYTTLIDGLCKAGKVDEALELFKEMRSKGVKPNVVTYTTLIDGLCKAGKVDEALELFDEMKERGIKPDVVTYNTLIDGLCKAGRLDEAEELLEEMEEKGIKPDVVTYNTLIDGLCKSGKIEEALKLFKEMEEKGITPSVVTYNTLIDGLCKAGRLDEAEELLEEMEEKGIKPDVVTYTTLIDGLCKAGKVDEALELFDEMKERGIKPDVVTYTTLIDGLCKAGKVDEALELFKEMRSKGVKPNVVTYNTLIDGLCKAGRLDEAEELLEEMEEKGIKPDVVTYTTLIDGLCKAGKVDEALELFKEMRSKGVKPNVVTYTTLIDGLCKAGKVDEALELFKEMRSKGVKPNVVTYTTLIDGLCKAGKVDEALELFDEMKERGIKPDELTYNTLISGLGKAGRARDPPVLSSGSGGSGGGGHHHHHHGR

NL_v2_PPR9 = molecular target: T4, NL_v2_PPR9 (Artificial Sequence); test: ELONA; RPB-ELISA; conditions: tags: N-term luciferase, C-term 6xHis; label: 5'-biotin
T4 chain: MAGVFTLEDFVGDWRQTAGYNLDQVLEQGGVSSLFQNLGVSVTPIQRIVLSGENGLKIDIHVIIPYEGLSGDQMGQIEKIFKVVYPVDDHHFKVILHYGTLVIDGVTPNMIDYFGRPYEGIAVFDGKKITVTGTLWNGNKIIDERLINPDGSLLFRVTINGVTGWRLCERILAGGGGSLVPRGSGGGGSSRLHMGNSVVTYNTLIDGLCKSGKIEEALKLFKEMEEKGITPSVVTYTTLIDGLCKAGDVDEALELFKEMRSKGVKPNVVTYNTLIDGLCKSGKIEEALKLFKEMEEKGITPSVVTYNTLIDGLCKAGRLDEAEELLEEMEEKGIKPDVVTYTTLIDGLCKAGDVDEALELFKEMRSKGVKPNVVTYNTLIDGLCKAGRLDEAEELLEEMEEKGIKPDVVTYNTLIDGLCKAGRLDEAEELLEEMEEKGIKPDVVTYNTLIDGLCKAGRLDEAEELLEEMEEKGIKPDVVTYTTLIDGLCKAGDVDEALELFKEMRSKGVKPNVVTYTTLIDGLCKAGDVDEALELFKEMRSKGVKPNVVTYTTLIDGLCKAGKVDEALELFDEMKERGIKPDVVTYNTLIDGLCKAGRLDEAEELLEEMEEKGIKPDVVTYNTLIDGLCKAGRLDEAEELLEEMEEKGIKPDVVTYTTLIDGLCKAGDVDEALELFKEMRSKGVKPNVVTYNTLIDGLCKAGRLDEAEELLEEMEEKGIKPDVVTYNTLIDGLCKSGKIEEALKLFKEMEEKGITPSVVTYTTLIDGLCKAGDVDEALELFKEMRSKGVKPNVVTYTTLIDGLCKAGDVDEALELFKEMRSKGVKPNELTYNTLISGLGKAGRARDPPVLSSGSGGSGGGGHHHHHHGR

v3.1_PPR9 = molecular target: T5, v3.1_PPR9 (Artificial Sequence); test: ELONA; RPB-ELISA; conditions: tags: luciferase fusion; label: 5'-biotin
T5 chain: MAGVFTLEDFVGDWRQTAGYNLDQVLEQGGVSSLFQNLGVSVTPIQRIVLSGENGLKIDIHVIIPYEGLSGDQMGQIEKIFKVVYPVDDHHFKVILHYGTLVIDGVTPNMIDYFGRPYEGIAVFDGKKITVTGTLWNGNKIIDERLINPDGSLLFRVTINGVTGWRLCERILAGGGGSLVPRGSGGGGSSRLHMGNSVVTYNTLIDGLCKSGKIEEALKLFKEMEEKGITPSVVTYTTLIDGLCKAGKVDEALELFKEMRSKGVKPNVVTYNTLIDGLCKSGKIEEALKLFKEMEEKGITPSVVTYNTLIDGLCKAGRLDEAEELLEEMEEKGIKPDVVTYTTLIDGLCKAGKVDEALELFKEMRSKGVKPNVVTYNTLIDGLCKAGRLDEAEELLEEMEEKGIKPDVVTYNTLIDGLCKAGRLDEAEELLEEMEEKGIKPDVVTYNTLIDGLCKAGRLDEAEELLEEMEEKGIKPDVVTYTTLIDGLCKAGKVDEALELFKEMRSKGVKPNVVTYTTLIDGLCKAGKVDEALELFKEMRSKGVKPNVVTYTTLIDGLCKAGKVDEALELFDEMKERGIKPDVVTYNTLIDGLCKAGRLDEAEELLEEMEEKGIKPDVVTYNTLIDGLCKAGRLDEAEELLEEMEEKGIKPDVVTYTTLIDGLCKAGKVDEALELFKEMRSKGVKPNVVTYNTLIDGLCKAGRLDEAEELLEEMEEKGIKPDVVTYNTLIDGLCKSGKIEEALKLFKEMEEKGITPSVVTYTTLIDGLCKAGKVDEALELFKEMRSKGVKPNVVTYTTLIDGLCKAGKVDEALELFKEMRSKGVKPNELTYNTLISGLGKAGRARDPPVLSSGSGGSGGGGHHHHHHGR

Q: Which binding signal ([1]; RPB-ELISA) does the source give for GGCAAAAAGAUCACUGUA [T_5 (in RNA_5)] here?
A: Its binding signal is 6e+07 luminescence.

Q: Which binding signal (log2 luminescence) ([2]; off-target, on-target 25.98) does the source give for GACAUGCCAACAUCAGUCUGAUAAGGACUG [RNA_6] here?
A: The binding signal (log2 luminescence) was 14.4.

Q: For GAGAGGAAGCCUGAGAGU [T_2 (in RNA_2)], which binding signal ([3]; RPB-ELISA) is on record?
A: Its binding signal is 5.7e+07 luminescence.

Q: With CUGAGUCAUAACCAGCCU [T_3 (in RNA_3)] as the molecule, how does the binding signal ([4]; RPB-ELISA) read?
A: The binding signal was 3.3e+07 luminescence.

Q: How did the binding signal ([2]; RPB-ELISA) turn out when GAAUGAACUCUUCCGGGA [T_1 (in RNA_1)] was run?
A: The binding signal was 6.6e+07 luminescence.

Q: What about the binding signal (log2 luminescence) ([3]; off-target) of the same molecule?
A: The binding signal (log2 luminescence) was 17.

Q: And the binding signal (log2 luminescence) ([1]; off-target, on-target 25.83)?
A: The binding signal (log2 luminescence) was 18.1.

Q: What about the binding signal (log2 luminescence) ([4]; off-target, on-target 25.00) of the same molecule?
A: Its binding signal (log2 luminescence) is 16.7.

Q: Which binding signal (log2 luminescence) ([3]; off-target cross-binding) does the source give for GACAUGCCACAAUGUGGCCGAGGACGACUG [RNA_7] here?
A: Its binding signal (log2 luminescence) is 24.8.

Q: GACAUGCCACAAUGUGGCCGAGGACGACUG (ssRNA) [RNA_7] was tested. Which binding signal (NL_v2_PPR7) did it give?
A: Its binding signal is 1.9e+07 luminescence.

Q: What about the binding signal (v3.1_PPR7) of the same molecule?
A: The binding signal was 3.4e+07 luminescence.

Q: With GACAUGCCAACAUCAGUCUGAUAAGGACUG (ssRNA) [RNA_6] as the molecule, how does the binding signal (v3.1_PPR6) read?
A: Its binding signal is 6.1e+06 luminescence.

Q: GACAUGCCACUAUUUAAGUUAUCAAGACUG (ssRNA) [RNA_9] was tested. Which binding signal (NL_v2_PPR9) did it give?
A: The binding signal was 4.7e+07 luminescence.

Q: And the binding signal (v3.1_PPR9)?
A: Its binding signal is 2.2e+06 luminescence.
